Biological target: SisCmr7-β (Cmr7 subunit of the S. islandicus Cmr-β complex), dimer (S. islandicus (REY15A))
Test: cryo-EM structure

stoichiometry N: 2
Substance: SisCmr7-β (Cmr7 subunit of the S. islandicus Cmr-β complex), dimer (natural protein)
